± gives the standard deviation of the averaged measurements.
Columns and labels:
[1] = test system: Saccharomyces cerevisiae; test: protein stability index of tFT-peptide fusion (C-terminal peptide) (PSI (0-1 scale)); higher = more stable (slower turnover); conditions: genetic background: wild type; temperature: 30 C
[2] = test system: Saccharomyces cerevisiae; test: as above
Procedure: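 MPS profiling in S. cerevisiae of the tFT-X12 degron library: putative degron peptides plus stable controls, 12 aa, fused to the C-terminus of a sfGFP-mCherry timer. Cells are FACS-sorted into 8 mCherry/sfGFP bins and deep-sequenced. PSI runs from 0 (unstable) to 1 (stable). Backgrounds are wild type, das1Δ and doa10Δ at 30 °C, and wild type, das1Δ, cdc34-1 and cdc53-1 at 37 °C; 2-3 technical replicates each.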

[3] = genetic background: cdc34-1, temperature: 37 C
[4] = genetic background: cdc53-1, temperature: 37 C
[5] = genetic background: das1 deletion, temperature: 30 C
[6] = genetic background: das1 deletion, temperature: 37 C
[7] = genetic background: doa10 deletion, temperature: 30 C
[8] = genetic background: wild type, temperature: 30 C
[9] = genetic background: wild type, temperature: 37 C
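Further: PSI is a weighted mean of sequencing reads over stability bins, variants kept only with over 10 reads, mCherry proximal and sfGFP distal, peptide attached via GGGS linker.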

Sequence	protein stability index [1]	protein stability index [2, 3]	protein stability index [2, 4]	protein stability index [2, 5]	protein stability index [2, 6]	protein stability index [2, 7]	protein stability index [2, 8]	protein stability index [2, 9]
PALPTPPVSPSP	0.333 ± 0.013	0.613 ± 0.092	0.667 ± 0.11	0.256 ± 0.025	0.465 ± 0.0057	0.243 ± 0.014	0.265 ± 0.022	0.43648 ± 0.00011
PCVPRLLPLQLS	0.252 ± 0.03	0.628 ± 0.019	0.795 ± 0.028	0.6546 ± 0.005	0.758 ± 0.03	0.216 ± 0.0089	0.233 ± 0.0069	0.363 ± 0.0044
PCYRPPLPALLS	0.501 ± 0.013	0.613 ± 0.013	0.69 ± 0.0093	0.62 ± 0.036	0.705 ± 0.024	0.395 ± 0.024	0.43 ± 0.03	0.568 ± 0.033
PDPIFGEWVYMV	0.327 ± 0.0015	0.57943 ± 4.3e-05	0.72148 ± 0.00041	0.644 ± 0.0072	0.7555 ± 0.0066	0.249 ± 0.00039	0.26 ± 0.02	0.384 ± 0.0032
PFAFLSLVLLLP	0.418 ± 0.0045	0.51 ± 0.017	0.5103 ± 0.0028	0.418 ± 0.029	0.5176 ± 0.0043	0.383 ± 0.027	0.35 ± 0.023	0.482 ± 0.02
PFFFIFVLPFVF	0.402 ± 0.011	0.456 ± 0.045	0.51212 ± 0.00041	0.366 ± 0.024	0.524 ± 0.0093	0.318 ± 0.027	0.309 ± 0.041	0.465 ± 0.0074
PFLLLVSPISSC	0.433 ± 0.011	0.416 ± 0.037	0.403 ± 0.01	0.301 ± 0.028	0.4637 ± 0.0012	0.271 ± 0.0057	0.302 ± 0.028	0.445 ± 0.014
PGFCFFLYYCMM	0.49 ± 0.034	0.4815 ± 0.0025	0.558 ± 0.056	0.416 ± 0.031	0.562 ± 0.011	0.368 ± 0.0053	0.412 ± 0.018	0.5331 ± 0.00095
PHGASLCVPPSP	0.491 ± 0.0074	0.675 ± 0.025	0.739 ± 0.0082	0.647 ± 0.0089	0.7271 ± 0.0072	0.645 ± 0.02	0.651 ± 0.014	0.69931 ± 2.1e-06
PHGLKPHCPTPS	0.728 ± 0.02	0.685 ± 0.026	0.745 ± 0.021	0.654 ± 0.016	0.7368 ± 0.0034	0.674 ± 0.046	0.677 ± 0.01	0.73 ± 0.042

From the supplement of paper PMC10724198
